Test results from article PMC10746170.

Test system: T1, His6-GacA (Acinetobacter baumannii (strain ATCC 17978?)), ORF:4711fff2
T1 sequence: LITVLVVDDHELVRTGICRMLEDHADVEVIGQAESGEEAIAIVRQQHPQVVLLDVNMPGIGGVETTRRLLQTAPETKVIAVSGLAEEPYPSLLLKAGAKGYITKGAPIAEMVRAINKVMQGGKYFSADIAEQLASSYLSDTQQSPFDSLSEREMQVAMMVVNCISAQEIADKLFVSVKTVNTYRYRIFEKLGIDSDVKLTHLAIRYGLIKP
Experiment: EMSA
Details: 20 mM Tris pH 8.0, 150 mM NaCl, 10 mM EDTA, 100 ug/mL BSA, 20 mM acetyl phosphate, 10% glycerin, 1 mM DTT; ~10 nM probe; 20 min, room temperature; 6% native …

Sequence	binding
CTCGTCATTATTAAGGCACGAGCTTGAATTAAACTGCACATCTAGTGTCAGTTGCTTATAGTGGCTATTGTCTTAGTATTTTTAAAAATCTGCAATATCTTTTTTTTAAAATTACCTAAGAAAATAAAAATATTTCAGAAAACTTTTTAGTTTTAAAAAATTTATAGTTTCTAATTATAAATAGCTTGCACAAAAAAACCAGCTTTAAAGCTGGTCTATTTTTAAATTATCACGGCGTATGAAGCTGTGTTTCCGTGTACGGACCTATTTCCGTTTCCTGTATTCCTCCGCTTCCGGAAT (double strand) [dotI promoter probe]	binds
TTCTATAAATAAGAAATAAAGAATTTATTAATGCGTATAGTGCACAGCAAATATTATAAATTAATAAAGGTTGGTTAAAGGTTTGTTTTACAAGTATATGAAATGAATTAAAATTTTTTAATTTTATTTTTACGGTGTAAGCTTGTGATAAATAAAAATTAATAGCTAGAAAACTTATTTAAAACTTTTTAGTCTAATAGCATATTAAATTAAATTGAGCTTTATTATTTATAGCGAAATATATAACACTCGCTGAAACTTGGTTGATTTTTAATAATCAAGATAATAAAGGAAAAGGAT (double strand) [PDC promoter probe]	binds
